{"source": "paper PMC8523169", "about": "“Competitive binding of MatP and topoisomerase IV to the MukB hinge domain” (eLife, 2021)", "binders": {"B1": {"name": "MatPΔ18C (1–132), C-terminal 6xHis-tag (domain or fragment, E. coli, UniProt P0A8N0 1-132, looked up)", "chain": "MKYQQLENLESGWKWKYLVKKHREGELITRYIEASAAQEAVDVLLSLENEPVLVNGWIDKHMNPELVNRMKQTIRARRKRHFNAEHQHTRKKSIDLEFIVWQRLAGLAQRRGKTLSETIVQLIEDAENKEKY", "notes": "MatP, E. coli, residues 1-132 (deletion of the 18 C-terminal residues); also called MatPΔ18C-His; MatP2; source: overexpressed, purified as previously published (Nolivos et al., 2016) with an added SEC step; not shown: His6, C-terminal, kept"}, "B2": {"name": "MatP^4A (K71A, Q72A, R75A, and R77A) (domain or fragment, E. coli, UniProt P0A8N0 1-132, looked up)", "chain": "B1 chain with K71A, Q72A, R75A, R77A", "notes": "MatP, E. coli, residues 1-132 (MatPΔ18C) with four substitutions; source: site-directed mutagenesis, purified using the same protocol as MatP"}, "B3": {"name": "full-length ParC, N-terminal 6xHis-tag (enzyme, E. coli, UniProt P0AFI2 1-752, looked up)", "chain": "MSDMAERLALHEFTENAYLNYSMYVIMDRALPFIGDGLKPVQRRIVYAMSELGLNASAKFKKSARTVGDVLGKYHPHGDSACYEAMVLMAQPFSYRYPLVDGQGNWGAPDDPKSFAAMRYTESRLSKYSELLLSELGQGTADWVPNFDGTLQEPKMLPARLPNILLNGTTGIAVGMATDIPPHNLREVAQAAIALIDQPKTTLDQLLDIVQGPDYPTEAEIITSRAEIRKIYENGRGSVRMRAVWKKEDGAVVISALPHQVSGARVLEQIAAQMRNKKLPMVDDLRDESDHENPTRLVIVPRSNRVDMDQVMNHLFATTDLEKSYRINLNMIGLDGRPAVKNLLEILSEWLVFRRDTVRRRLNYRLEKVLKRLHILEGLLVAFLNIDEVIEIIRNEDEPKPALMSRFGLTETQAEAILELKLRHLAKLEEMKIRGEQSELEKERDQLQGILASERKMNNLLKKELQADAQAYGDDRRSPLQEREEAKAMSEHDMLPSEPVTIVLSQMGWVRSAKGHDIDAPGLNYKAGDSFKAAVKGKSNQPVVFVDSTGRSYAIDPITLPSARGQGEPLTGKLTLPPGATVDHMLMESDDQKLLMASDAGYGFVCTFNDLVARNRAGKALITLPENAHVMPPVVIEDASDMLLAITQAGRMLMFPVSDLPQLSKGKGNKIINIPSAEAARGEDGLAQLYVLPPQSTLTIHVGKRKIKLRPEELQKVTGERGRRGTLMRGLQRIDRVEIDSPRRASSGDSEE", "notes": "ParC subunit of topoisomerase IV, E. coli, full length; also called His-ParC; ParC2; source: overexpressed, purified as previously published (Nolivos et al., 2016) with an added SEC step; not shown: His6, N-terminal, kept"}, "B4": {"name": "Cy3B-labeled MatP-Cys-His (domain or fragment, E. coli)", "chain": "MKYQQLENLESGWKWKYLVKKHREGELITRYIEASAAQEAVDVLLSLENEPVLVNGWIDKHMNPELVNRMKQTIRARRKRHFNAEHQHTRKKSIDLEFIVWQRLAGLAQRRGKTLSETIVQLIEDAENKEKYSDPNSSSVDKLCAAALE", "modifications": "Cy3B maleimide on the single cysteine engineered into the C-terminal linker", "notes": "MatP, E. coli, residues 1-132 (MatPΔ18C); C-terminal linker between MatP and its 6xHis-tag with the engineered cysteine; Labeling efficiency 89%; also called MatP-Cy3B; Cy3B-MatP; source: purified as MatP, labeled with Cy3B maleimide, excess dye removed by SEC"}}, "key": {"[1]": {"target": "T1, MukB long hinge (LH; amino acid residues 568–863) (E. coli, UniProt P22523 568-863)", "T1 construct": "MukB, E. coli, residues 568-863: dimeric globular hinge domain and 20% of the coiled-coil region; also called LH (MBP cleaved); LH2; source: NEBExpress cells (pMAL-c5X), purified (amylose, Factor Xa cleavage, HiTrap Q XL, SEC); not shown: MBP, N-terminal, cleaved", "T1 sequence (looked up)": "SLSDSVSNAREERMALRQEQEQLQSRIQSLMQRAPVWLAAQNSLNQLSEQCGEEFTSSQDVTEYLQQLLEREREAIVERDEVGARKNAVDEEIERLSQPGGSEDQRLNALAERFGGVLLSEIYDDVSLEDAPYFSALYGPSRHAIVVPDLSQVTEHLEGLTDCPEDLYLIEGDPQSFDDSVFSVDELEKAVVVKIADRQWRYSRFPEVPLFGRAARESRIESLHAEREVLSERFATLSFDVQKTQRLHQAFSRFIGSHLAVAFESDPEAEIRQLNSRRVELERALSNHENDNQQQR", "test": "ITC; 100 µM MatP titrated into 10 µM LH at 25 °C; one-site model; three repeats", "conditions": "both partners purified"}, "[2]": {"target": "the molecule itself", "test": "native MS; proteins buffer exchanged into 200 mM ammonium acetate pH 8.0, alone or mixed in different ratios (two or three components, with or without 50 bp DNA), 10 min on ice"}, "[3]": {"target": "T1, MukB long hinge (LH; amino acid …)", "test": "native MS; proteins buffer exchanged into 200 mM ammonium acetate pH 8.0, alone or mixed in different ratios (two or three components, with or without 50 bp DNA), 10 min on ice", "conditions": "both partners purified"}, "[4]": {"target": "T1, MukB long hinge (LH; amino acid …)", "test": "native gel or EMSA; native PAGE; MatP or variants (7 µM) mixed with LH and/or 50 bp DNA at 1:1(:1), 30 min on ice; Coomassie and ethidium bromide staining", "conditions": "both partners purified"}, "[5]": {"target": "the molecule itself", "test": "native MS; proteins buffer exchanged into 200 mM ammonium acetate pH 8.0, alone or mixed in different ratios (two or three components, with or without 50 bp DNA), 10 min on ice", "remark": "listed apart in the source"}, "[6]": {"target": "T2, full-length MukB (wild type) (E. coli, UniProt P22523 1-1486)", "T2 construct": "MukB, E. coli, full length; also called WT MukB; unlabeled MukB; source: purified as described (Zawadzka et al., 2018)", "T2 sequence (looked up)": "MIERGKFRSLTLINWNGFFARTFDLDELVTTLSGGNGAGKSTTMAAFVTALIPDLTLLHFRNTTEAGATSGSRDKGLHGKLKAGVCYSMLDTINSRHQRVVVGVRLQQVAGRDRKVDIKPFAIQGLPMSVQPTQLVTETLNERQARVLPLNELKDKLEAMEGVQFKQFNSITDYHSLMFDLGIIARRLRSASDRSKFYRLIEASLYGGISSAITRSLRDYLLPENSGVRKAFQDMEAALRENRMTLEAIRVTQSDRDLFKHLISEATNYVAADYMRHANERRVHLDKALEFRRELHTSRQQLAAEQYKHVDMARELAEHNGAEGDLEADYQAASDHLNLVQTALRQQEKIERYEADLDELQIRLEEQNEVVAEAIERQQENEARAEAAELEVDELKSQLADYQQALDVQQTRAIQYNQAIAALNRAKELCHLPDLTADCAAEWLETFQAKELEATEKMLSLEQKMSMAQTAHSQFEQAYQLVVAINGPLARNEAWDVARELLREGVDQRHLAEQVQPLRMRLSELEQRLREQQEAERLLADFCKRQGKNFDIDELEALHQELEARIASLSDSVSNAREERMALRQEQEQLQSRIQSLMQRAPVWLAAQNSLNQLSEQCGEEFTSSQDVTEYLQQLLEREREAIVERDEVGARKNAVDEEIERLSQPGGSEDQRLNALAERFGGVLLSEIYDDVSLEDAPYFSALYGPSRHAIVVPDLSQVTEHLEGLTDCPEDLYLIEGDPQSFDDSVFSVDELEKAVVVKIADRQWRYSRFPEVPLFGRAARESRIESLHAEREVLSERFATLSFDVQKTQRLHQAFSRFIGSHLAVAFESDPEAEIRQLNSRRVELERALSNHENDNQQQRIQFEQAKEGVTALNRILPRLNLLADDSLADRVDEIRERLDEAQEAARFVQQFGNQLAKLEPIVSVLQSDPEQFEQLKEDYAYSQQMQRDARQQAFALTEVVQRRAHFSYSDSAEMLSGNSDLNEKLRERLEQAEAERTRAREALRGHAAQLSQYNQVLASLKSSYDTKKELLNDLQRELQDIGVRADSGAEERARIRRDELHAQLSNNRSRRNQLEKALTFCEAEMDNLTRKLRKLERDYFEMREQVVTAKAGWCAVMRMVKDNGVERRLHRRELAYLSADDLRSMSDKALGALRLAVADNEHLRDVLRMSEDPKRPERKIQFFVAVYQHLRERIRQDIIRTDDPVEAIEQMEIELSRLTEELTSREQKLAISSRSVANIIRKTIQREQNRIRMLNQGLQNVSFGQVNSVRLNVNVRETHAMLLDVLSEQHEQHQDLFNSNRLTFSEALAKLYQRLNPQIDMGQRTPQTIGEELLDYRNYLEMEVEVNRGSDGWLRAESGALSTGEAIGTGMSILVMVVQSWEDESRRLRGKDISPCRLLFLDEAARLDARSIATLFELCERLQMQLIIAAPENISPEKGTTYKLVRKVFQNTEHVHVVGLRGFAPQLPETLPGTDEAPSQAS", "test": "fluorescence correlation spectroscopy (FCS); competition: MatP-Cy3B fixed at 1 nM, MukB at 400 nM; ParC variants at 10-fold, unlabeled MatP at 50-fold, DNA at 2.5-fold molar excess", "conditions": "both partners purified"}, "[7]": {"target": "T3, full-length MukB^KKK (D697K D745K E753K) (E. coli, UniProt P22523 1-1486, D697K | D745K | E753K)", "T3 construct": "MukB, E. coli, full length, with three hinge substitutions", "T3 sequence (looked up)": "T2 sequence (looked up) with D697K, D745K, E753K", "test": "fluorescence correlation spectroscopy (FCS); titration at constant 1 nM MatP-Cy3B; 20 mM Tris-HCl pH 7.5, 50 mM NaCl, 0.3 mg/mL BSA, 2 mM DTT, 0.05% Tween-20; 22 °C; fitted to the Hill equation", "conditions": "both partners purified"}, "[8]": {"target": "T2, full-length MukB (wild type)", "test": "fluorescence correlation spectroscopy (FCS); titration at constant 1 nM MatP-Cy3B; 20 mM Tris-HCl pH 7.5, 50 mM NaCl, 0.3 mg/mL BSA, 2 mM DTT, 0.05% Tween-20; 22 °C; fitted to the Hill equation", "conditions": "both partners purified"}}, "note": "Positions count from the first letter of the chain named. Names may count otherwise. Where two headings read alike, the source gives them in different places.", "data": [{"binder": "B1", "values": [{"measurement": "Kd", "setting": "[1]", "value": 590, "unit": "nM"}, {"measurement": "dH", "setting": "[1]", "value": -16.8, "unit": "kcal/mol"}, {"measurement": "stoichiometry N", "setting": "[1]", "value": 0.96}, {"measurement": "stoichiometry N", "setting": "[2]", "value": 2}, {"measurement": "stoichiometry N", "setting": "[3]", "value": 1, "unit": "MatP dimer per LH dimer"}]}, {"binder": "B2", "values": [{"measurement": "binding result", "setting": "[4]", "value": "binds"}, {"measurement": "stoichiometry N", "setting": "[5]", "value": 2}]}, {"binder": "B3", "values": [{"measurement": "stoichiometry N", "setting": "[2]", "value": 2}, {"measurement": "fold decrease in MatP-Cy3B binding to MukB at 10-fold excess of competitor", "setting": "[6]", "value": 3, "unit": "fold"}]}, {"binder": "B4", "values": [{"measurement": "Kd", "setting": "[7]", "value": "~1600", "unit": "nM"}, {"measurement": "Kd", "setting": "[8]", "value": "~250", "unit": "nM"}]}]}
